From patent publication US20180185450A1 (Sanofi, published 2018)
Numbered stars: 1 amine (or outer) side, 2 acyl side, 3 side chain; on linkers, the order of the positions; unused ones are H or OH. Square brackets hold non-standard residues; d marks the D form. Side chains are listed from the residue outwards. Ends that are not written are not given here. γGlu = O=C(O)[C@H](CCC(=O)[*:2])N[*:1]; x53 = not defined here; Aib = CC(C)(N)C(=O)O

Experiments:
[1] = molecular target: human GLP-1 receptor (human, UniProt P43220 24-463); experiment: cell-based or functional assay
[2] = molecular target: human glucagon receptor (human, UniProt P47871 26-477); experiment: cell-based or functional assay
human glucagon receptor, sequence (P47871 26-477): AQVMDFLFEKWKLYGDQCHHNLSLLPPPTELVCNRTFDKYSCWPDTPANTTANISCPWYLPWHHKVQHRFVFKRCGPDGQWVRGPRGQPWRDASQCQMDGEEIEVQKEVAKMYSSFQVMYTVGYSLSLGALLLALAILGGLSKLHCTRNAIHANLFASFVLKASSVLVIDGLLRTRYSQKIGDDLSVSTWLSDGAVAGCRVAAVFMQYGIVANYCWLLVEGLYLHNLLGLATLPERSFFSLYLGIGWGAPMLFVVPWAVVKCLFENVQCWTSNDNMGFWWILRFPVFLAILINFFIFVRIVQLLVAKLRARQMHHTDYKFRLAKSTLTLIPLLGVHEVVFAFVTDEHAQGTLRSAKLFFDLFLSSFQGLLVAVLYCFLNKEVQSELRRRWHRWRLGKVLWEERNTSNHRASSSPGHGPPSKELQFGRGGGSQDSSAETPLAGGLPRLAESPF

H[Aib]QGTFTSDLSKQK([γGlu-x53])ES[Aib]AAQDFIEWLKAGGPSSGAPPPS-NH2 (reading uncertain) [SEQ ID NO: 13]
EC50 hGLP-1R (cAMP) [1]: 3.1 pM
EC50 hGlucagon-R (cAMP) [2]: 281 pM

HXQGTFTSDLSKQKDSRRAQDFIEWLKNGGPSSGAPPPS (dSer at 2; K(γE-x53) at 14; C-terminal NH(benzyl)) [SEQ ID NO: 99]
EC50 hGLP-1R (cAMP) [1]: 15.9 pM
EC50 hGlucagon-R (cAMP) [2]: 2.6 pM

HXQGTFTSDLSKQKDSRRAQDFIEWLKNGGPSSGAPPPS (dSer at 2; K(γE-x53) at 14; C-terminal NH(CH2-CF3)) [SEQ ID NO: 103]
EC50 hGLP-1R (cAMP) [1]: 10.1 pM
EC50 hGlucagon-R (cAMP) [2]: 1.7 pM

HXQGTFTSDLSKQKDSRRAQDFIEWLKNGGPSSGAPPPS (dSer at 2; K(γE-x53) at 14; C-terminal NH(tert.butyl)) [SEQ ID NO: 100]
EC50 hGLP-1R (cAMP) [1]: 13.5 pM
EC50 hGlucagon-R (cAMP) [2]: 2 pM

HXQGTFTSDLSKQKDSRRAQDFIEWLKNGGPSSGAPPPS (dSer at 2; K(γE-x53) at 14; C-terminal NH[(CH2-CH2-O)24-CH2-CH2-COOH]) [SEQ ID NO: 105]
EC50 hGLP-1R (cAMP) [1]: 7.9 pM
EC50 hGlucagon-R (cAMP) [2]: 1 pM

HXQGTFTSDLSKQKESRRAQDFIEWLKNGGPSSGAPPPK (dSer at 2; K(γE-x53) at 14; C-terminal NH2) [SEQ ID NO: 113]
EC50 hGLP-1R (cAMP) [1]: 11.4 pM
EC50 hGlucagon-R (cAMP) [2]: 5.4 pM

HXQGTFTSDLSKQKDSRRAQDFIEWLKNGGPSSGAPPPS (dSer at 2; K(γE-x53) at 14; C-terminal NH[(CH2)12-OH]) [SEQ ID NO: 107]
EC50 hGLP-1R (cAMP) [1]: 188 pM
EC50 hGlucagon-R (cAMP) [2]: 37.8 pM

HXQGTFTSDLSKQKDSRRAQDFIEWLKNGGPSSGAPPPS (dSer at 2; K(γE-x53) at 14; C-terminal N(diethyl)) [SEQ ID NO: 101]
EC50 hGLP-1R (cAMP) [1]: 9.8 pM
EC50 hGlucagon-R (cAMP) [2]: 1.7 pM

HXQGTFTSDLSKQKDSRRAQDFIEWLKNGGPSSGAPPPS (dSer at 2; K(γE-x53) at 14; C-terminal NH[(CH2-CH2-O)4-CH2-CH2-COOH]) [SEQ ID NO: 104]
EC50 hGLP-1R (cAMP) [1]: 6.5 pM
EC50 hGlucagon-R (cAMP) [2]: 1.1 pM

HXQGTFTSDLSKQKDSRRAQDFIEWLKNGGPSSGAPPPS (dSer at 2; K(γE-x53) at 14; C-terminal NH[(CH2)14-CH3]) [SEQ ID NO: 108]
EC50 hGLP-1R (cAMP) [1]: 197 pM
EC50 hGlucagon-R (cAMP) [2]: 9 pM

HXQGTFTSDLSKQKDSRRAQDFIEWLKNGGPSSGAPPPS (dSer at 2; K(γE-x53) at 14; C-terminal NH[(CH2)15-CH3]) [SEQ ID NO: 106]
EC50 hGLP-1R (cAMP) [1]: 210 pM
EC50 hGlucagon-R (cAMP) [2]: 10.5 pM

HXQGTFTSDLSKQKDSRRAQDFIEWLKNGGPSSGAPPPS (dSer at 2; K(γE-x53) at 14; C-terminal NH[(CH2)17-CH3]) [SEQ ID NO: 109]
EC50 hGLP-1R (cAMP) [1]: 430 pM
EC50 hGlucagon-R (cAMP) [2]: 28.6 pM

HXQGTFTSDLSKQKDSRRAQDFIEWLKNGGPSSGAPPPS (dSer at 2; K(γE-x53) at 14; C-terminal N(morpholin)) [SEQ ID NO: 102]
EC50 hGLP-1R (cAMP) [1]: 7.2 pM
EC50 hGlucagon-R (cAMP) [2]: 1.1 pM

HXQGTFTSDLSKQKDSRRAQDFIEWLKNGGPSSGAPPPS (dSer at 2; K(γE-x53) at 14; C-terminal NH[(CH2)13-CH3]) [SEQ ID NO: 110]
EC50 hGLP-1R (cAMP) [1]: 213 pM
EC50 hGlucagon-R (cAMP) [2]: 7.2 pM

HXQGTFTSDLSKQKESRRAQDFIEWLKNGGPSSGAPPPK (dSer at 2; K(x53) at 14; C-terminal NH2) [SEQ ID NO: 114]
EC50 hGLP-1R (cAMP) [1]: 62.3 pM
EC50 hGlucagon-R (cAMP) [2]: 31.1 pM

HXQGTFTSDLSKQKESRRAQDFIEWLKNGGPSSGAPPPS (dSer at 2; K(γE-x53) at 14; C-terminal NH2) [SEQ ID NO: 116]
EC50 hGLP-1R (cAMP) [1]: 6 pM
EC50 hGlucagon-R (cAMP) [2]: 3.6 pM

HXQGTFTSDLSKQKESRRAQDFIEWLKNGGPSSGAPPPSK (dSer at 2; K(γE-x53) at 14; C-terminal NH2) [SEQ ID NO: 111]
EC50 hGLP-1R (cAMP) [1]: 8.1 pM
EC50 hGlucagon-R (cAMP) [2]: 2.5 pM

HXQGTFTSDLSKQKESRRAQDFIEWLKNGGPSSGAPPPSK (dSer at 2; K(x53) at 14; C-terminal NH2) [SEQ ID NO: 112]
EC50 hGLP-1R (cAMP) [1]: 33.6 pM
EC50 hGlucagon-R (cAMP) [2]: 21.1 pM

HXQGTFTSDLSKQKESXAAXLFIEWLKAGGPSSGAPPPS (dSer at 2; K(γE-x53) at 14; Aib at 17; Aib at 20; C-terminal NH2) [SEQ ID NO: 12]
EC50 hGLP-1R (cAMP) [1]: 4.6 pM
EC50 hGlucagon-R (cAMP) [2]: 263 pM
